Measurements taken from US20160159924A1 (Novo Nordisk, published 2016).
Residue numbers refer to the chain shown, from its start.

B1: rec0266-0000-0010-VH_G99H (antibody, mouse IgG1, V domains shown)
VH: DVKLVESGGGLVKPGGSLKLSCVASGFTFSSYTMSWVRQTPEKRLEWVATISGGGSHIYYADSVKGRFTISRDNAKNTLYLQMSSLKSEDTAIYYCTRDGRDHSWFAYWGQGTLVTVSA
VL: DIVMTQSPATLSVTPGDRVSLSCRTSQSIGDYLHWYQQKSHESPRLLIKYVSQSISGIPSRFSGSGSGSDFTLSINSVESEDVGVYYCQNSHSFPLTFGSGTKLELKR
B2: rec0266-0000-0010-VH_G99N (antibody, mouse IgG1, V domains shown)
VH: B1 VH with H103N
VL: B1 VL
B3: rec0266-0000-0010-VH_G99T (antibody, mouse IgG1, V domains shown)
VH: B1 VH with H103T
VL: B1 VL
B4: rec0266-0000-0010-VH_G99K (antibody, mouse IgG1, V domains shown)
VH: B1 VH with H103K
VL: B1 VL
B5: rec0266-0000-0010-VH_G99Y (antibody, mouse IgG1, V domains shown)
VH: B1 VH with H103Y
VL: B1 VL
B6: rec0266-0000-0010-VH_G99S (antibody, mouse IgG1, V domains shown)
VH: B1 VH with H103S
VL: B1 VL
B7: rec0266-0000-0010-VH_G99V (antibody, mouse IgG1, V domains shown)
VH: B1 VH with H103V
VL: B1 VL
B8: rec0266-0000-0010-VH_G99P (antibody, mouse IgG1, V domains shown)
VH: B1 VH with H103P
VL: B1 VL
B9: rec0266-0000-0010-VH_G99L (antibody, mouse IgG1, V domains shown)
VH: B1 VH with H103L
VL: B1 VL
B10: rec0266-0000-0010-VH_G99I (antibody, mouse IgG1, V domains shown)
VH: B1 VH with H103I
VL: B1 VL
B11: rec0266-0000-0010-VH_G99R (antibody, mouse IgG1, V domains shown)
VH: B1 VH with H103R
VL: B1 VL
B12: rec0266-0000-0010-VL_N90V (antibody, mouse IgG1, name in Kabat numbering, V domains shown)
VH: B1 VH with H103G
VL: B1 VL with N90V
B13: rec0266-0000-0010-VL_N90P (antibody, mouse IgG1, name in Kabat numbering, V domains shown)
VH: B1 VH with H103G
VL: B1 VL with N90P
B14: rec0266-0000-0010-VL_N90S (antibody, mouse IgG1, name in Kabat numbering, V domains shown)
VH: B1 VH with H103G
VL: B1 VL with N90S
B15: rec0266-0000-0010-VL_N90F (antibody, mouse IgG1, name in Kabat numbering, V domains shown)
VH: B1 VH with H103G
VL: B1 VL with N90F
B16: rec0266-0000-0010-VL_N90E (antibody, mouse IgG1, name in Kabat numbering, V domains shown)
VH: B1 VH with H103G
VL: B1 VL with N90E
B17: rec0266-0000-0010-VL_S91H (antibody, mouse IgG1, name in Kabat numbering, V domains shown)
VH: B1 VH with H103G
VL: B1 VL with S91H
B18: rec0266-0000-0010-VL_S91T (antibody, mouse IgG1, name in Kabat numbering, V domains shown)
VH: B1 VH with H103G
VL: B1 VL with S91T
B19: rec0266-0000-0010-VL_N90Y (antibody, mouse IgG1, name in Kabat numbering, V domains shown)
VH: B1 VH with H103G
VL: B1 VL with N90Y
B20: rec0266-0000-0010-VL_S91I (antibody, mouse IgG1, name in Kabat numbering, V domains shown)
VH: B1 VH with H103G
VL: B1 VL with S91I
B21: rec0266-0000-0010-VL_S91R (antibody, mouse IgG1, name in Kabat numbering, V domains shown)
VH: B1 VH with H103G
VL: B1 VL with S91R
B22: rec0266-0000-0010-VL_S91Y (antibody, mouse IgG1, name in Kabat numbering, V domains shown)
VH: B1 VH with H103G
VL: B1 VL with S91Y
B23: rec0266-0000-0010-VL_S91A (antibody, mouse IgG1, name in Kabat numbering, V domains shown)
VH: B1 VH with H103G
VL: B1 VL with S91A
B24: rec0266-0000-0010-VL_S91K (antibody, mouse IgG1, name in Kabat numbering, V domains shown)
VH: B1 VH with H103G
VL: B1 VL with S91K
B25: rec0266-0000-0010-VL_S91P (antibody, mouse IgG1, name in Kabat numbering, V domains shown)
VH: B1 VH with H103G
VL: B1 VL with S91P
B26: rec0266-0000-0010-VL_N90Q (antibody, mouse IgG1, name in Kabat numbering, V domains shown)
VH: B1 VH with H103G
VL: B1 VL with N90Q
B27: rec0266-0000-0010-VL_S91V (antibody, mouse IgG1, name in Kabat numbering, V domains shown)
VH: B1 VH with H103G
VL: B1 VL with S91V
B28: rec0266-0000-0010-VL_N90H (antibody, mouse IgG1, name in Kabat numbering, V domains shown)
VH: B1 VH with H103G
VL: B1 VL with N90H
B29: rec0266-0000-0010-VL_S91F (antibody, mouse IgG1, name in Kabat numbering, V domains shown)
VH: B1 VH with H103G
VL: B1 VL with S91F
B30: rec0266-0000-0010-VL_N90G (antibody, mouse IgG1, name in Kabat numbering, V domains shown)
VH: B1 VH with H103G
VL: B1 VL with N90G
B31: rec0266-0000-0010-VL_N90T (antibody, mouse IgG1, name in Kabat numbering, V domains shown)
VH: B1 VH with H103G
VL: B1 VL with N90T
B32: rec0266-0000-0010-VL_N90I (antibody, mouse IgG1, name in Kabat numbering, V domains shown)
VH: B1 VH with H103G
VL: B1 VL with N90I
B33: rec0266-0000-0010-VL_S91Q (antibody, mouse IgG1, name in Kabat numbering, V domains shown)
VH: B1 VH with H103G
VL: B1 VL with S91Q
B34: rec0266-0000-0010-VL_S91D (antibody, mouse IgG1, name in Kabat numbering, V domains shown)
VH: B1 VH with H103G
VL: B1 VL with S91D
B35: rec0266-0000-0010-VL_N90K (antibody, mouse IgG1, name in Kabat numbering, V domains shown)
VH: B1 VH with H103G
VL: B1 VL with N90K
B36: rec0266-0000-0010-VL_S91E (antibody, mouse IgG1, name in Kabat numbering, V domains shown)
VH: B1 VH with H103G
VL: B1 VL with S91E
B37: rec0266-0000-0010-VL_S91L (antibody, mouse IgG1, name in Kabat numbering, V domains shown)
VH: B1 VH with H103G
VL: B1 VL with S91L
B38: rec0266-0000-0010-VL_N90L (antibody, mouse IgG1, name in Kabat numbering, V domains shown)
VH: B1 VH with H103G
VL: B1 VL with N90L
B39: rec0266-0000-0010-VL_N90R (antibody, mouse IgG1, name in Kabat numbering, V domains shown)
VH: B1 VH with H103G
VL: B1 VL with N90R

These binders were tested against T1, recombinant human sc-uPA (human, UniProt P00749 21-431) (assay: SPR, mAb immobilised).
T1 construct: 411 amino acid single-chain zymogen expressed in HEK293; the 20-residue signal peptide is not present in the mature protein; also called human single-chain uPA; pro-uPA
Experimental: The binding affinity to recombinant human sc-uPA protein (SEQ ID NO:1) was measured by surface plasmon resonance (SPR).
(§1) The experiments were performed on a Biacore™ instrument (GE Healthcare) and analysed with the BIAcore 4000 Evaluation Software. Anti-human uPA mAb variants were directly immobilized at 150-600 RU on flow cells of a CM5 sensor chip (GE Healthcare; cat. # BR-1000-12) via amine coupling, respectively. Recombinant human sc-uPA was diluted in HBS-N (GE Healthcare Cat BR-1006-70) with 1% BSA buffer with a dilution factor 3× ranging 1000-0.13 nM. Recombinant human sc-uPA was injected for 60 s, followed by a 600 s dissociation phase. Binding curves were measured at 25° C. with a flow rate of 30 μL/min. Regeneration of the chip surface was performed with pH1.5 Glycine for 25 s at 30 μl/min. Determination of the kinetic parameters was performed by fitting with a 1:1 binding model. Binding affinities were calculated and are stated in Table 17 below.

Kd	Binder
27 nM	B1
18 nM	B2
5.4 nM	B3
4.8 nM	B4
1.8 nM	B5
0.41 nM	B6
2.5 nM	B7
2.5 nM	B8
2.1 nM	B9
4.6 nM	B10
15 nM	B11

Target: T1, recombinant human sc-uPA
Experiment: SPR, mAb immobilised
Remark: another data set of the same source
Experimental: The binding affinity to recombinant human sc-uPA protein (SEQ ID […]) was measured by surface plasmon resonance (SPR).
as §1, with “20” for “17”

Kd	Binder
0.58 nM	B12
0.62 nM	B13
0.38 nM	B14
0.79 nM	B15
0.43 nM	B16
5.3 nM	B17
0.88 nM	B18
0.8 nM	B19
2.9 nM	B20
3.1 nM	B21
3.6 nM	B22
1.3 nM	B23
3.2 nM	B24
2 nM	B25
0.32 nM	B26
12 nM	B27
0.4 nM	B28
11 nM	B29
0.68 nM	B30
0.48 nM	B31
0.62 nM	B32
2.2 nM	B33
2.1 nM	B34
1.1 nM	B35
10 nM	B36
5.7 nM	B37
0.61 nM	B38
1.9 nM	B39
